Results as given in patent US20180273587A1 (AILERON THERAPEUTICS, published 2018).
Positions of bridges follow the written chain, without caps; N, C: chain ends. Non-standard residues stand in square brackets, D forms with d. R8 = C=CCCCCCC[C@@](C)(N)C(=O)O; S5 = C=CCCC[C@](C)(N)C(=O)O

Tests used:
Experiment in all cases: Ki table, method not stated
[1] = target: BCL-2 (UniProt P10415 1-217, limits assumed)
[2] = target: T1, MCL-1 (UniProt Q07820 172-327, limits assumed)
T1 construct: also called Myeloid cell leukemia 1

[3] = target: BCL-XL (UniProt Q07817 1-209)
Sequence of BCL-XL (Q07817 1-209): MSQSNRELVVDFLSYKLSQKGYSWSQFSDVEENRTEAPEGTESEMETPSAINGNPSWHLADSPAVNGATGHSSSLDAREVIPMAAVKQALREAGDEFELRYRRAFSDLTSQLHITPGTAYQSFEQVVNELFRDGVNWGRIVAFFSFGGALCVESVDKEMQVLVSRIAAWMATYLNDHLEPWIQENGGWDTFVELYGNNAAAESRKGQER

T1 sequence (Q07820 172-327 limits assumed): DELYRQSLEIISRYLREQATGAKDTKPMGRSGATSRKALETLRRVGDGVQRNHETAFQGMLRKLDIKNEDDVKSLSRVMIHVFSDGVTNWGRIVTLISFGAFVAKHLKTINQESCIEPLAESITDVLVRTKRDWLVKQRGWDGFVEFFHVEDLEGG
Sequence of BCL-2 (P10415 1-217 limits assumed): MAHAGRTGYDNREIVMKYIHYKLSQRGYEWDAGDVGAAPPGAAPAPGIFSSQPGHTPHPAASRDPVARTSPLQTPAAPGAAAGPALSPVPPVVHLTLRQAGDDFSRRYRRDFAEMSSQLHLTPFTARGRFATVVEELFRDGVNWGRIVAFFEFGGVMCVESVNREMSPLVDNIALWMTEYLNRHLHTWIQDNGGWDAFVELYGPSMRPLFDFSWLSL

Row | Binder | Ki [1] [nM] | Ki [2] [nM] | Ki [3] [nM]
1 | Ac-IWIAQAAR[R8]IGDAAN[S5]YYA-NH2 (staple 9-16; SMILES CC[C@H](C)[C@H](NC(C)=O)C(=O)N[C@@H](Cc1c[nH]c2ccccc12)C(=O)N[C@H](C(=O)N[C@@H](C)C(=O)N[C@@H](CCC(N)=O)C(=O)N[C@@H](C)C(=O)N[C@@H](C)C(=O)N[C@@H](CCCNC(=N)N)C(=O)N[C@]1(C)CCCCCCC=CCCC[C@@](C)(C(=O)N[C@@H](Cc2ccc(O)cc2)C(=O)N[C@@H](Cc2ccc(O)cc2)C(=O)N[C@@H](C)C(N)=O)NC(=O)[C@H](CC(N)=O)NC(=O)[C@H](C)NC(=O)[C@H](C)NC(=O)[C@H](CC(=O)O)NC(=O)CNC(=O)[C@H]([C@@H](C)CC)NC1=O)[C@@H](C)CC) [SEQ ID NO: 1664] | 502 | 177 | 154
2 | Ac-IWIAQALR[R8]AGDQFN[S5]YYA-NH2 (staple 9-16; SMILES CC[C@H](C)[C@H](NC(C)=O)C(=O)N[C@@H](Cc1c[nH]c2ccccc12)C(=O)N[C@H](C(=O)N[C@@H](C)C(=O)N[C@@H](CCC(N)=O)C(=O)N[C@@H](C)C(=O)N[C@@H](CC(C)C)C(=O)N[C@@H](CCCNC(=N)N)C(=O)N[C@]1(C)CCCCCCC=CCCC[C@@](C)(C(=O)N[C@@H](Cc2ccc(O)cc2)C(=O)N[C@@H](Cc2ccc(O)cc2)C(=O)N[C@@H](C)C(N)=O)NC(=O)[C@H](CC(N)=O)NC(=O)[C@H](Cc2ccccc2)NC(=O)[C@H](CCC(N)=O)NC(=O)[C@H](CC(=O)O)NC(=O)CNC(=O)[C@H](C)NC1=O)[C@@H](C)CC) [SEQ ID NO: 1668] | 4.8 | 122 | 1.9
3 | Ac-IWIAQALR[R8]IADQFN[S5]YYA-NH2 (staple 9-16; SMILES CC[C@H](C)[C@H](NC(C)=O)C(=O)N[C@@H](Cc1c[nH]c2ccccc12)C(=O)N[C@H](C(=O)N[C@@H](C)C(=O)N[C@@H](CCC(N)=O)C(=O)N[C@@H](C)C(=O)N[C@@H](CC(C)C)C(=O)N[C@@H](CCCNC(=N)N)C(=O)N[C@]1(C)CCCCCCC=CCCC[C@@](C)(C(=O)N[C@@H](Cc2ccc(O)cc2)C(=O)N[C@@H](Cc2ccc(O)cc2)C(=O)N[C@@H](C)C(N)=O)NC(=O)[C@H](CC(N)=O)NC(=O)[C@H](Cc2ccccc2)NC(=O)[C@H](CCC(N)=O)NC(=O)[C@H](CC(=O)O)NC(=O)[C@H](C)NC(=O)[C@H]([C@@H](C)CC)NC1=O)[C@@H](C)CC) [SEQ ID NO: 1666] | 25.6 | 116 | 7.7
4 | Ac-IWIAQALR[R8]FGDAFN[S5]YYA-NH2 (staple 9-16; SMILES CC[C@H](C)[C@H](NC(C)=O)C(=O)N[C@@H](Cc1c[nH]c2ccccc12)C(=O)N[C@H](C(=O)N[C@@H](C)C(=O)N[C@@H](CCC(N)=O)C(=O)N[C@@H](C)C(=O)N[C@@H](CC(C)C)C(=O)N[C@@H](CCCNC(=N)N)C(=O)N[C@]1(C)CCCCCCC=CCCC[C@@](C)(C(=O)N[C@@H](Cc2ccc(O)cc2)C(=O)N[C@@H](Cc2ccc(O)cc2)C(=O)N[C@@H](C)C(N)=O)NC(=O)[C@H](CC(N)=O)NC(=O)[C@H](Cc2ccccc2)NC(=O)[C@H](C)NC(=O)[C@H](CC(=O)O)NC(=O)CNC(=O)[C@H](Cc2ccccc2)NC1=O)[C@@H](C)CC) [SEQ ID NO: 1669] | 68.5 | 27.8 | 15.8
5 | Ac-IWIAQALR[R8]AGDAFN[S5]YYA-NH2 (staple 9-16; SMILES CC[C@H](C)[C@H](NC(C)=O)C(=O)N[C@@H](Cc1c[nH]c2ccccc12)C(=O)N[C@H](C(=O)N[C@@H](C)C(=O)N[C@@H](CCC(N)=O)C(=O)N[C@@H](C)C(=O)N[C@@H](CC(C)C)C(=O)N[C@@H](CCCNC(=N)N)C(=O)N[C@]1(C)CCCCCCC=CCCC[C@@](C)(C(=O)N[C@@H](Cc2ccc(O)cc2)C(=O)N[C@@H](Cc2ccc(O)cc2)C(=O)N[C@@H](C)C(N)=O)NC(=O)[C@H](CC(N)=O)NC(=O)[C@H](Cc2ccccc2)NC(=O)[C@H](C)NC(=O)[C@H](CC(=O)O)NC(=O)CNC(=O)[C@H](C)NC1=O)[C@@H](C)CC) [SEQ ID NO: 1667] | 59.6 | 183 | 18.1
6 | Ac-IWIAQALR[R8]IADAFN[S5]YYA-NH2 (staple 9-16; SMILES CC[C@H](C)[C@H](NC(C)=O)C(=O)N[C@@H](Cc1c[nH]c2ccccc12)C(=O)N[C@H](C(=O)N[C@@H](C)C(=O)N[C@@H](CCC(N)=O)C(=O)N[C@@H](C)C(=O)N[C@@H](CC(C)C)C(=O)N[C@@H](CCCNC(=N)N)C(=O)N[C@]1(C)CCCCCCC=CCCC[C@@](C)(C(=O)N[C@@H](Cc2ccc(O)cc2)C(=O)N[C@@H](Cc2ccc(O)cc2)C(=O)N[C@@H](C)C(N)=O)NC(=O)[C@H](CC(N)=O)NC(=O)[C@H](Cc2ccccc2)NC(=O)[C@H](C)NC(=O)[C@H](CC(=O)O)NC(=O)[C@H](C)NC(=O)[C@H]([C@@H](C)CC)NC1=O)[C@@H](C)CC) [SEQ ID NO: 1665] | 84 | 96.3 | 7.7
7 | Ac-IWIAQALR[R8]FGDQFN[S5]YYA-NH2 (staple 9-16; SMILES CC[C@H](C)[C@H](NC(C)=O)C(=O)N[C@@H](Cc1c[nH]c2ccccc12)C(=O)N[C@H](C(=O)N[C@@H](C)C(=O)N[C@@H](CCC(N)=O)C(=O)N[C@@H](C)C(=O)N[C@@H](CC(C)C)C(=O)N[C@@H](CCCNC(=N)N)C(=O)N[C@]1(C)CCCCCCC=CCCC[C@@](C)(C(=O)N[C@@H](Cc2ccc(O)cc2)C(=O)N[C@@H](Cc2ccc(O)cc2)C(=O)N[C@@H](C)C(N)=O)NC(=O)[C@H](CC(N)=O)NC(=O)[C@H](Cc2ccccc2)NC(=O)[C@H](CCC(N)=O)NC(=O)[C@H](CC(=O)O)NC(=O)CNC(=O)[C@H](Cc2ccccc2)NC1=O)[C@@H](C)CC) [SEQ ID NO: 1670] | 66.1 | 74.1 | 25.6
8 | Ac-IWFAQALR[R8]IGDAFN[S5]YYA-NH2 (staple 9-16; SMILES CC[C@H](C)[C@H](NC(C)=O)C(=O)N[C@@H](Cc1c[nH]c2ccccc12)C(=O)N[C@@H](Cc1ccccc1)C(=O)N[C@@H](C)C(=O)N[C@@H](CCC(N)=O)C(=O)N[C@@H](C)C(=O)N[C@@H](CC(C)C)C(=O)N[C@@H](CCCNC(=N)N)C(=O)N[C@]1(C)CCCCCCC=CCCC[C@@](C)(C(=O)N[C@@H](Cc2ccc(O)cc2)C(=O)N[C@@H](Cc2ccc(O)cc2)C(=O)N[C@@H](C)C(N)=O)NC(=O)[C@H](CC(N)=O)NC(=O)[C@H](Cc2ccccc2)NC(=O)[C@H](C)NC(=O)[C@H](CC(=O)O)NC(=O)CNC(=O)[C@H]([C@@H](C)CC)NC1=O) [SEQ ID NO: 1671] | 179 | 22 | 28
